Test results: paper PMC10541012

How the values were obtained:
[1] = molecular target: Cdh1 (UniProt P53197); assay: FLAG-bead in vitro Co-IP after Cla4; details: reference: wild type FLAG-Set1, Cla4-treated; sites S228
[2] = molecular target: Cdh1 (UniProt P53197); assay: FLAG-bead in vitro Co-IP, immunoblot; details: reference: wild type FLAG-Set1; sites S228

binding against the reference [1]	binding against the reference [2]	Substance
stronger		Set1 (from UniProt P38827) FLAG-Set1-S228A, Cla4-treated
	stronger	Set1 (from UniProt P38827) FLAG-Set1-S228A
